20 molecules from US20180155451A1 (published 2018) can be followed below.

Sequences and labels used below:
B1: GpH7-B3 variant (T335_04F)/GpL16-k0 (antibody, human IgG1, kappa)
heavy: not shown
light: DIVMTQSPLSLPVTPGEPASISCQASESLVHSNRNTYLHWYLQKPGQSPQLLIYKVSNRFSGVPDRFSGSGSGTDFTLKISRVEAEDVGVYYCSQNTHVPPTFGQGTKVEIERTVAAPSVFIFPPSDEQLKSGTASVVCLLNNFYPREAKVQWKVDNALQSGNSQESVTEQDSKDSTYSLSSTLTLSKADYEKHKVYACEVTHQGLSSPVTKSFNRGEC
notes: Homodimerized; both H chains altered; also called Ho Ab T335_04F
B2: GpH7-B3 variant (I336_08L)/GpL16-k0 (antibody, human IgG1, kappa)
heavy: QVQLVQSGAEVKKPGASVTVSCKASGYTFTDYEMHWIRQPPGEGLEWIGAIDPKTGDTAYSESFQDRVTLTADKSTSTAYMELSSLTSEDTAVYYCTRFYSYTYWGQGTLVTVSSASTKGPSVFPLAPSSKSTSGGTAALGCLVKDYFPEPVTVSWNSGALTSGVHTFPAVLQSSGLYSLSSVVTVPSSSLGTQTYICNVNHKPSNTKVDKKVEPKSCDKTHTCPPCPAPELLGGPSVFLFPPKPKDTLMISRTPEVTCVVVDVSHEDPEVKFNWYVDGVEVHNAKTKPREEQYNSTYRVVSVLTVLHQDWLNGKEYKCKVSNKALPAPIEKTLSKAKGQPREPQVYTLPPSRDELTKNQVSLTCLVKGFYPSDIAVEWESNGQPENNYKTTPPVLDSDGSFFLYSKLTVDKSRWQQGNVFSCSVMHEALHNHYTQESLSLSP
light: B1 light
notes: Homodimerized; both H chains altered; also called Ho Ab I336_08L
B3: GpH7-B3 variant (H268_01G)/GpL16-k0 (antibody, human IgG1, kappa)
heavy: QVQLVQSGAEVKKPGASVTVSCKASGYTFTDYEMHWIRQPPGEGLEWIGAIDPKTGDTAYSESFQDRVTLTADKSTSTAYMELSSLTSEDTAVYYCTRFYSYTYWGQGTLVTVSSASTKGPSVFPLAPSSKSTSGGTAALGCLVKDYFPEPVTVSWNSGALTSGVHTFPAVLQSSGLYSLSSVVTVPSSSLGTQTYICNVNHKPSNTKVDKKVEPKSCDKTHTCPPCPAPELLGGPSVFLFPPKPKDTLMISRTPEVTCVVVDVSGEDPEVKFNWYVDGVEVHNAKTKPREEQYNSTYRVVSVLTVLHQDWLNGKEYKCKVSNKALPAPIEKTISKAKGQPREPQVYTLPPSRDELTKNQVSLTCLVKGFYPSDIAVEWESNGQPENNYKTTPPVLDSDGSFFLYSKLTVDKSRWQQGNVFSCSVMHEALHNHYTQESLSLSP
light: B1 light
notes: Homodimerized; both H chains altered; also called Ho Ab H268_01G
B4: GpH7-B3 variant (A330_01G)/GpL16-k0 (antibody, human IgG1, kappa)
heavy: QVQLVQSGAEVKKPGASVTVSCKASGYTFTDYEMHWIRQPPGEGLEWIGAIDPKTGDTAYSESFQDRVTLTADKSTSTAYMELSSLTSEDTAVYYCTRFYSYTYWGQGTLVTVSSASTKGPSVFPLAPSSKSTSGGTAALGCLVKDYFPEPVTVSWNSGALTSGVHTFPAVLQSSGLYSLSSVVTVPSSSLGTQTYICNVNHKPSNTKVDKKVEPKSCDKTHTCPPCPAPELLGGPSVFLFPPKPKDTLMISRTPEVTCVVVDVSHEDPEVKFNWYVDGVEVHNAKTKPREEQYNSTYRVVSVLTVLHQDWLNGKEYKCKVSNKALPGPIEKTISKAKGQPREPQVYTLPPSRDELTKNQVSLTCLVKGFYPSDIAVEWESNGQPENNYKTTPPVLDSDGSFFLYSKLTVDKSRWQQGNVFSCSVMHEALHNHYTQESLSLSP
light: B1 light
notes: Homodimerized; both H chains altered; also called Ho Ab A330_01G
B5: GpH7-B3 variant (A330_10E)/GpL16-k0 (antibody, human IgG1, kappa)
heavy: not shown
light: B1 light
notes: Homodimerized; both H chains altered; also called Ho Ab A330_10E
B6: GpH7-B3 variant (H268_09D)/GpL16-k0 (antibody, human IgG1, kappa)
heavy: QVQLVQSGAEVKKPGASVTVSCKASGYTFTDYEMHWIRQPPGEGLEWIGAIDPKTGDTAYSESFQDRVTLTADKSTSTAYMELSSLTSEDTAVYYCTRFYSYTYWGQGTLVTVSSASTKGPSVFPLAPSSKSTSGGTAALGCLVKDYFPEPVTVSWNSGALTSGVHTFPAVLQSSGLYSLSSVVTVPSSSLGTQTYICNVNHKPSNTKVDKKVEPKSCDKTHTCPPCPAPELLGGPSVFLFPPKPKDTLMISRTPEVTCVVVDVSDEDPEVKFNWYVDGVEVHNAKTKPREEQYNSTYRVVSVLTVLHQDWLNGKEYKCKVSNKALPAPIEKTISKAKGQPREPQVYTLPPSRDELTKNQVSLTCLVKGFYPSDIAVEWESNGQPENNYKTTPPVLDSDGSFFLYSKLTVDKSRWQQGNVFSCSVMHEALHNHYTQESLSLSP
light: B1 light
notes: Homodimerized; both H chains altered; also called Ho Ab H268_09D
B7: GpH7-B3 variant (A330_20W)/GpL16-k0 (antibody, human IgG1, kappa)
heavy: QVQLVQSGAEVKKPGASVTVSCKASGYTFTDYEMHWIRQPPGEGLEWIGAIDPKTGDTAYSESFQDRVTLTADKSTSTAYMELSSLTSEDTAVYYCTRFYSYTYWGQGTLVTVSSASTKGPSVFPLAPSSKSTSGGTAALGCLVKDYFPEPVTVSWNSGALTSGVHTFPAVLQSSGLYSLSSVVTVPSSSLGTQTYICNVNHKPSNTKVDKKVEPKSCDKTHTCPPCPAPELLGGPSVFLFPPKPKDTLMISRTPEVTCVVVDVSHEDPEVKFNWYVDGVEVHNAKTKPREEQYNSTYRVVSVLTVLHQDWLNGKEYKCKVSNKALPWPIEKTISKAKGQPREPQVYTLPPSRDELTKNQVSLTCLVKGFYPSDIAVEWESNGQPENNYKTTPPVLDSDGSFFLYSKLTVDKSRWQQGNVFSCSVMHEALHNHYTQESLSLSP
light: B1 light
notes: Homodimerized; both H chains altered; also called Ho Ab A330_20W
B8: GpH7-B3 variant (H268_10E)/GpL16-k0 (antibody, human IgG1, kappa)
heavy: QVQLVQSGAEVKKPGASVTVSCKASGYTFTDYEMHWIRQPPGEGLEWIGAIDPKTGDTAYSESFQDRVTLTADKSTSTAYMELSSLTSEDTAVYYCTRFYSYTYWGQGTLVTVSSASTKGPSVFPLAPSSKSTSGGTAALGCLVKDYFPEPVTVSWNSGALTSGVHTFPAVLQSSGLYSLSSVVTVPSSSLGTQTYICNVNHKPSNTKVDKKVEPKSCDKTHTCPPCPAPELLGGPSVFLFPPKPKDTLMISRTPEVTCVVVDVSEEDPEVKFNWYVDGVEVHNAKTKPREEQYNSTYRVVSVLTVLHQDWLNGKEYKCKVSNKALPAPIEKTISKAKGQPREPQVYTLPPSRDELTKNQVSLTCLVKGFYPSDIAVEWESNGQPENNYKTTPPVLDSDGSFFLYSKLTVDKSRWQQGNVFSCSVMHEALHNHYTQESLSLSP
light: B1 light
notes: Homodimerized; both H chains altered; also called Ho Ab H268_10E
B9: GpH7-B3 variant (D265_10E)/GpL16-k0 (antibody, human IgG1, kappa)
heavy: not shown
light: B1 light
notes: Homodimerized; both H chains altered; also called Ho Ab D265_10E
B10: GpH7-B3 variant (H268_13S)/GpL16-k0 (antibody, human IgG1, kappa)
heavy: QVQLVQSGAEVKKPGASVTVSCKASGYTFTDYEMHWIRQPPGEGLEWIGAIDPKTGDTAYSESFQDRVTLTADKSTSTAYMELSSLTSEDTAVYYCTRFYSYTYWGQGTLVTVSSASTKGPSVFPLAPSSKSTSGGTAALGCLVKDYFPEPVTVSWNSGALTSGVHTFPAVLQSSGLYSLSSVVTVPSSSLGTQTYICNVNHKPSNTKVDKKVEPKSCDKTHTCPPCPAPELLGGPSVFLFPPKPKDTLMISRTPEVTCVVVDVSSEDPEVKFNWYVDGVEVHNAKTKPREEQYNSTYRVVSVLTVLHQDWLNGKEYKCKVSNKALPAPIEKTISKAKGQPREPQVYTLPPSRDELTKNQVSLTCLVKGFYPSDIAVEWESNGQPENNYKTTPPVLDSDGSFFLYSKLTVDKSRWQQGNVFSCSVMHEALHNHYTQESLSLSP
light: B1 light
notes: Homodimerized; both H chains altered; also called Ho Ab H268_13S
B11: GpH7-B3 variant (H268_18N)/GpL16-k0 (antibody, human IgG1, kappa)
heavy: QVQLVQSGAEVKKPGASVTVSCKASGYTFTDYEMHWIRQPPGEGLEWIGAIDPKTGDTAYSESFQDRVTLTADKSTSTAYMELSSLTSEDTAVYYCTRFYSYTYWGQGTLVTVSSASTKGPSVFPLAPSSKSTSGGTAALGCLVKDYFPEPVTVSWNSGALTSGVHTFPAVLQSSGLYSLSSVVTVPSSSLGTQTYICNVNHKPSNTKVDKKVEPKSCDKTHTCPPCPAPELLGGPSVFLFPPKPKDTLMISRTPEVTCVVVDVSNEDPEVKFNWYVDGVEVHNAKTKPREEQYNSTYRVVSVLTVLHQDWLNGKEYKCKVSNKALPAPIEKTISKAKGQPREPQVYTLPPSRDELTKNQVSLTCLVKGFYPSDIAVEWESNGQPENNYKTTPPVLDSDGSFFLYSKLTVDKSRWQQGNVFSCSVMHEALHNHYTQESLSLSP
light: B1 light
notes: Homodimerized; both H chains altered; also called Ho Ab H268_18N
B12: GpH7-B3 variant (A330_04F)/GpL16-k0 (antibody, human IgG1, kappa)
heavy: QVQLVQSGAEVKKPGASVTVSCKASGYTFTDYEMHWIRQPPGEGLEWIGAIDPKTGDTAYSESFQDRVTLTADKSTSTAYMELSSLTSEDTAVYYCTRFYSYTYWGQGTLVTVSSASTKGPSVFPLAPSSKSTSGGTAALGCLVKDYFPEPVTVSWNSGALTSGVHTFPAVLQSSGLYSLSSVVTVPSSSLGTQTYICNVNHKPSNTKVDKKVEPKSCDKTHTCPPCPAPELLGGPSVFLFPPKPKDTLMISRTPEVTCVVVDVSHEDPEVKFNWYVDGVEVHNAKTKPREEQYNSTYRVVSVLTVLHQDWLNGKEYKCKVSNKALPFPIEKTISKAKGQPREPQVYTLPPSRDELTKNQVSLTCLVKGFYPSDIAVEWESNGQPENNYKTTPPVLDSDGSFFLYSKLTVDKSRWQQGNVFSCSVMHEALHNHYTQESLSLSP
light: B1 light
notes: Homodimerized; both H chains altered; also called Ho Ab A330_04F
B13: GpH7-B3 variant (I336_09D)/GpL16-k0 (antibody, human IgG1, kappa)
heavy: not shown
light: B1 light
notes: Homodimerized; both H chains altered; also called Ho Ab I336_09D
B14: GpH7-B3 variant (A330_19Q)/GpL16-k0 (antibody, human IgG1, kappa)
heavy: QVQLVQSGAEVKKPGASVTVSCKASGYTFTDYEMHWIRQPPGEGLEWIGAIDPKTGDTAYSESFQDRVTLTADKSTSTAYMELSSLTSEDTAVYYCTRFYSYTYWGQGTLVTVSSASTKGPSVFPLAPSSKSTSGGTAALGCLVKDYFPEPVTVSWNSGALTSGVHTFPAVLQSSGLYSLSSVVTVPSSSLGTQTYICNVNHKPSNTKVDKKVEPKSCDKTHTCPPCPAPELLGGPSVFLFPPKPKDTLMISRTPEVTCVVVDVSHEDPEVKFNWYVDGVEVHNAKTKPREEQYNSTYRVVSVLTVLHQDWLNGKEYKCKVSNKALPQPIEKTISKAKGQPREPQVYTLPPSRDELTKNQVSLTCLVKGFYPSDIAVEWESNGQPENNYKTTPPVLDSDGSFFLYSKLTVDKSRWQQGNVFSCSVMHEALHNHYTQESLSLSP
light: B1 light
notes: Homodimerized; both H chains altered; also called Ho Ab A330_19Q
B15: GpH7-A5/GpH7-B3 variant S267_03V/GpL16-k0 (heterodimerized antibody, He Ab) (antibody, human IgG1, kappa)
heavy 1: not shown
heavy 2: not shown
light: B1 light
notes: Anti-glypican-3 IgG1; the alteration is in the GpH7-B3 chain only; also called S267V
B16: GpH7-A5/GpH7-B3 variant V266_06M/GpL16-k0 (heterodimerized antibody, He Ab) (antibody, human IgG1, kappa)
heavy 1: not shown
heavy 2: not shown
light: B1 light
notes: Anti-glypican-3 IgG1; the alteration is in the GpH7-B3 chain only; also called V266M
B17: GpH7-A5/GpH7-B3 variant S267_08L/GpL16-k0 (heterodimerized antibody, He Ab) (antibody, human IgG1, kappa)
heavy 1: not shown
heavy 2: not shown
light: B1 light
notes: Anti-glypican-3 IgG1; the alteration is in the GpH7-B3 chain only; also called S267L
B18: GpH7-A5/GpH7-B3 variant S267_10E/GpL16-k0 (heterodimerized antibody, He Ab) (antibody, human IgG1, kappa)
heavy 1: not shown
heavy 2: not shown
light: B1 light
notes: Anti-glypican-3 IgG1; the alteration is in the GpH7-B3 chain only; also called S267E
B19: GpH7-A5/GpH7-B3 variant S267_07I/GpL16-k0 (heterodimerized antibody, He Ab) (antibody, human IgG1, kappa)
heavy 1: not shown
heavy 2: not shown
light: B1 light
notes: Anti-glypican-3 IgG1; the alteration is in the GpH7-B3 chain only; also called S267I
B20: GpH7-A5/GpH7-B3 variant S267_06M/GpL16-k0 (heterodimerized antibody, He Ab) (antibody, human IgG1, kappa)
heavy 1: not shown
heavy 2: not shown
light: B1 light
notes: Anti-glypican-3 IgG1; the alteration is in the GpH7-B3 chain only; also called S267M

T2 sequence (P08637 17-208): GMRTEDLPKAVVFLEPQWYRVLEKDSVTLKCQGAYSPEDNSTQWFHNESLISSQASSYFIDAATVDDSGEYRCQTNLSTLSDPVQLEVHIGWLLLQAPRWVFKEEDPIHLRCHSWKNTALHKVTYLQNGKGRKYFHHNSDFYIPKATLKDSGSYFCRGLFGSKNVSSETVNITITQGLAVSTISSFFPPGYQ

In the first assay the target is T1, FcγRIa extracellular domain with C-terminal His tag (human, UniProt P12314 16-292).
T1 construct: extracellular domain; Expressed in FreeStyle293 cells; used as analyte in Biacore; also called FcgRI; 1a; not shown: His tag at the C terminus
T1 sequence (P12314 16-292): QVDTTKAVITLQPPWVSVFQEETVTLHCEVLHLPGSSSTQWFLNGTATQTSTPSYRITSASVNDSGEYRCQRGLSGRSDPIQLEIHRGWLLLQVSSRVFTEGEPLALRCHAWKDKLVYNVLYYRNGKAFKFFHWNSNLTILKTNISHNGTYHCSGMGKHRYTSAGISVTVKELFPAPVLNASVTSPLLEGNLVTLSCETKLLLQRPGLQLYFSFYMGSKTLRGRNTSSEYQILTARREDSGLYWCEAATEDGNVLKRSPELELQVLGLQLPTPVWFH
The assay is described as follows: SPR (Biacore), captured antibody, FcγRIa analyte; relative to GpH7-B3/GpL16-k0 = 100. On the technique in general: Surface plasmon resonance follows binding to a sensor surface in real time, without labels.
As to B1, the Ho/Con_1a was 105 % of control.
As for B2, the Ho/Con_1a is 109 % of control.
On to B3, for which the Ho/Con_1a is 108 % of control.
Still for that read-out and setting: with B4 the figure was 106 % of control; with B5, 108 % of control; with B6, 110 % of control.
Still for that read-out and setting: to B7 belongs 108 % of control; to B8, 112 % of control; to B9, 103 % of control.
Same read-out and setting: with B10 the figure was 110 % of control; with B11, 108 % of control.
Take B12: the Ho/Con_1a is 107 % of control.
Still for that read-out and setting: to B13 belongs 108 % of control.
Same read-out and setting: to B14 belongs 106 % of control.

The next assay addresses T2, FcγRIIIa extracellular domain with C-terminal His tag (human, UniProt P08637 17-208).
T2 construct: extracellular domain; also called FcgRIIIa; 3a; not shown: His tag at the C terminus
Kind of assay: SPR (Biacore), captured antibody, FcγR as analyte; relative to GpH7-A5/GpH7-B3/GpL16-k0 = 100. The procedure: (§1) Analysis of interaction between objective antibody and the FcγR was carried out using Biacore T100 (GE Healthcare). HBS-EP+ (GE Healthcare) was used as the running buffer, and the measurement temperature was set to 25° C. Chips produced by immobilizing the antigen peptide by the amine coupling method to a Series S Sencor Chip CM5 (GE Healthcare), or alternatively, chips produced by allowing preliminarily biotinylated antigen peptides to interact with and immobilize onto a Series S Sensor Chip SA (certified) (GE Healthcare) were used. Antibodies of interest were captured onto an antigen peptide-immobilized chip, and allowed to interact to each FcγR diluted with running buffer. To regenerate and repeatedly use the chip, the antibodies captured on the chip were washed off by reacting 10 mM glycine-HCl, pH 1.5.
(§2) The FcγR-binding activity of each antibody was assessed primarily using as an indicator the FcγR-binding activity and dissociation constant for FcγR.
Turning to B15, the “He/Con_3a (IIIa binding)” value is 30.8 % of HeCon Ab.
Still for that read-out and setting: to B16 belongs 85.8 % of HeCon Ab; to B17, 19.5 % of HeCon Ab; to B18, 91.9 % of HeCon Ab.
In the case of B19, the “He/Con_3a (IIIa binding)” value was 25.2 % of HeCon Ab.
The same measure, in the same setting: to B20 belongs 66 % of HeCon Ab.

A further assay addresses T3, FcγRIIb extracellular domain with C-terminal His tag (human, UniProt P31994 43-217).
T3 construct: extracellular domain; also called FcgRIIb; 2b; not shown: His tag at the C terminus
T3 sequence (looked up): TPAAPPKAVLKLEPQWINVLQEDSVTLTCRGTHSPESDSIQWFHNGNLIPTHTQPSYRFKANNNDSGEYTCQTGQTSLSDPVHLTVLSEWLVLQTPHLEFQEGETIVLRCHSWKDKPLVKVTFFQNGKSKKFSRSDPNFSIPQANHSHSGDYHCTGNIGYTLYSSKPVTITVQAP
Described as above. The procedure: as §1, §2
For the molecule B15, the “He/Con_2b (IIb binding)” value was 192 % of HeCon Ab.
Same read-out and setting: to B16 belongs 251 % of HeCon Ab.
Same read-out and setting: with B17 the figure was 109 % of HeCon Ab; with B18, 379 % of HeCon Ab; with B19, 192 % of HeCon Ab.
In the case of B20, the “He/Con_2b (IIb binding)” value was 210 % of HeCon Ab.
